Measurements: patent US20230038521A1 (INSTITUTE OF SCIENCE TOKYO, published 2023)
Values belong to the binder of their own block, whether it stands above or below them.

Molecular target: T1, human HMGB1 protein (human, UniProt P09429 1-215)
T1 construct: Non-denatured protein, used as analyte in SPR and added to neurons in the MARCKS phosphorylation assay; also called High Mobility Group Box 1
T1 sequence (looked up): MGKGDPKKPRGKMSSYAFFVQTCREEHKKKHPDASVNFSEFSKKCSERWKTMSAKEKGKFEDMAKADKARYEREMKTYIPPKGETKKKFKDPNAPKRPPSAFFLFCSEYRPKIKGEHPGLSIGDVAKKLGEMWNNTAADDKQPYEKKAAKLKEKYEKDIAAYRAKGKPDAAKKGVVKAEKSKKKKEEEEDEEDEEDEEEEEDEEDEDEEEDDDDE
Assay: SPR, Biacore T100, antibody immobilized on the chip, human HMGB1 as analyte
Experimental: The interaction between the human monoclonal antibody group of the present invention and human HMGB1 protein was compared and examined using SPR. Specifically, using a sensor chip on which each human monoclonal antibody of the present invention was immobilized and human HMGB1 protein as an analyte, the interaction was measured over time with a surface plasmon resonance sensor (“Biacore T100”, manufactured by GE healthcare), to calculate an equilibrium dissociation constant (KD value) as an index of the antibody affinity.

Kd: 5.54 nM
B1: monoclonal antibody #213-001 (antibody, human IgG1, kappa, V domains shown)
VH: EVQLVQSGAEVKKPGSSVKVSCKASGGTFSSYAISWVRQAPGQGLEWMGGIIPIFGRANYAQKFQGRVTITADESTSTAYMELSSLRSEDTAVYYCASLVTDYWGQGTLVTVSS
VL: DIQMTQSPSSLSASTGDRVTITCRASQGISSYLAWYQQKPGKAPKLLIYAASTLQSGVPSRFSGSGSGTDFTLTISSLQPEDFATYYCQQANSFPITFGQGTRLEIKT
notes: Human IgG from the ADLib system; kappa light chain

Kd: 0.0217 nM
B2: monoclonal antibody #127 (antibody, human IgG1, kappa, V domains shown)
VH: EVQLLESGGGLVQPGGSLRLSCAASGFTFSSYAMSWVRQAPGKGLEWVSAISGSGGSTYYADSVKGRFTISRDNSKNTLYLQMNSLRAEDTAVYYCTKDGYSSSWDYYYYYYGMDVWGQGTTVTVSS
VL: DIQMTQSPSSLSASVGDRVTITCRASQSVSSYLAWYQQKPGKAPKLLIYEASNLQAGVPSRFSGSGSGTDFTLTINSLQPEDFATYYCLQHNSNPLTFGQGTKLEIKT
notes: Human IgG from the ADLib system (DT40 cell library); kappa light chain
